Results from patent US12221488B2, “APJ antibody, fusion protein thereof with Elabela, and pharmaceutical compositions and use thereofus01” (GMAX BIOPHARM LLC, priority 2018, dated 2025).
Where no end group is shown, it is not given here.

Legend:
hAPJ [1] = molecular target: T1, hAPJ (Homo sapiens, UniProt P35414); assay: Reporter gene assay (hAPJ-CRE-Luciferase CHO-DHFR- cells) of in vitro activation of Elabela/APJ signaling pathway; assay type: cell-based; settings: for EC50: 0.6 μM forskolin, 6 hours at 37° C., Bright Glo readout; for blocking or activation of APJ receptor by the antibody: reporter gene assay
T1 construct: expressed in transfected cells; host or cells: CHO-DHFR- cells expressing hAPJ and a CRE-luciferase reporter
T1 sequence (P35414 1-380): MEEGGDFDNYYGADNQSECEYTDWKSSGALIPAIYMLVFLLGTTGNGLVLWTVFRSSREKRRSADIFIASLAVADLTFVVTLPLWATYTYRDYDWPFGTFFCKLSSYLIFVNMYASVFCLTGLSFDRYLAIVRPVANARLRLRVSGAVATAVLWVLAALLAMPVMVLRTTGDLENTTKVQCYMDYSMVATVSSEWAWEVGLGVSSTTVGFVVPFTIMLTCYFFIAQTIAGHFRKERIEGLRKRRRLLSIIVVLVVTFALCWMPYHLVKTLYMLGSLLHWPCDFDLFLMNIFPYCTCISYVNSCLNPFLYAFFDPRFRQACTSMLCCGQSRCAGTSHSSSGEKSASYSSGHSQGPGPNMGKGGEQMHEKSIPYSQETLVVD
Experimental: 35000 hAPJ-CRE-Luciferase expressing CHO-DHFR-cells per well were seeded into 96 well plate, and cultured overnight at 37° C. The culture supernatant was removed the second day, cells were washed twice with serum-free medium, and the residue liquid was aspirated. 50 μL of 0.6 μM forskolin was added in 96 well plate in advance, then 50 μL of Elabela fusion protein or Elabela-11 polypeptide diluted in serum-free medium was added, and incubated at 37° C. for 6 hours. After stimulation, 100 μL Bright Glo chemical luminescence substrate (Promega) was added, then the cell lysate was transferred to white 96 well plate, and the relative intensity of […] was read in the SpectraMax L (Molecular Devices). The data were fitted with prism5.0 and EC50 was calculated.

hAPJ [2] = molecular target: T1, hAPJ; assay: FACS analysis of binding of APJ antibodies to CHO-DHFR-hAPJ cells; settings: mouse ascites antibody at 500 nM and 4 nM on CHO-DHFR-hAPJ; negative control 500 nM on blank CHO-DHFR- cells
Experimental: PBS containing EDTA was used to detach and collect 10^5 CHO-DHFR-hAPJ cells into 1.5 mL EP tubes. The supernatant was removed after centrifugation. The negative control sample was resuspended with a FACS loading buffer (PBS, 2% FBS). For the positive control, 200 μL antibody supernatant with certain concentration was added to resuspend cells and then incubated at room temperature; the cells were then centrifuged at 1500 rpm to remove the supernatant, washed with a FACS loading buffer and centrifuged again. The cells were resuspended followed by addition (200 μL/well) of a FITC labeled goat anti-mouse fluorescent secondary antibody at 1:50 dilution and incubated at room temperature for 30 min in the dark. Supernatant was removed after centrifugation, cells were washed with FACS loading buffer, centrifuged again and resuspended with the loading buffer for analysis.

**Q.** With “L5H5 and Linker2-EA4: fusion protein of hAPJ antibody L5H5 and Linker2-EA4 (comprising SEQ ID NO: 123 and SEQ ID NO: 116) (GGGGSGGGGSQRRCLSHKGPMPF; also: fused to hAPJ antibody L5H5)” as the molecule, how does the EC50 (hAPJ [1]) read?
**A.** 5.4 nM

**Q.** And the EC50 (hAPJ [1]; listed as L5H5 and linker2-EA4)?
**A.** 5.43 nM

**Q.** Which EC50 (hAPJ [1]) does the source give for “L5H5 and Linker2-EA5: fusion protein of hAPJ antibody L5H5 and Linker2-EA5 (comprising SEQ ID NO: 123 and SEQ ID NO: 94) (GGGGSGGGGSQRRCMPLHSRVPAP; also: fused to hAPJ antibody L5H5)” here?
**A.** 2.6 nM

**Q.** What about the EC50 (hAPJ [1]; listed as L5H5 and linker2-EA5) of the same molecule?
**A.** 2.55 nM

**Q.** How did the EC50 (hAPJ [1]) turn out when “L5H5 and Linker2-EA3: fusion protein of hAPJ antibody L5H5 and Linker2-EA3 (comprising SEQ ID NO: 123 and SEQ ID NO: 109) (GGGGSGGGGSQRRCMPLHSRVPMPF; also: fused to hAPJ antibody L5H5)” was run?
**A.** 20.3 nM

**Q.** What about the EC50 (hAPJ [1]; listed as L5H5 and linker2-EA3) of the same molecule?
**A.** 20.3 nM

B1: L4H4: APJ antibody with light chain variable domain SEQ ID NO: 62 and heavy chain variable domain SEQ ID NO: 67 (antibody, listed as Mus musculus, V domains shown)
VH: EIKLVESGGGLVKPRGSLKLSCAASGFTFSSYAMSWVRQTPEKRLEWVASISSGGSIYLPDSLKGRFTISRDNAWNILYLQMNSLKSEDTAMYYCTRGRGNSSAWFAYWGQGTLVTVSA
VL: DVLMTQTPLSLPVSLGDQASISCRSDQSLVHRTGNTHLDWYLQKPGQSPKLLIYKVSNRFSGVPDRFSGSGSGTDFTLKISRVEAEDLGVYYCFQASHIPFTFGSGTKLEIKR
**Q.** Which results are given for B1?
**A.** blocking or activation of APJ receptor by the antibody (hAPJ [1]): did not block or activate APJ receptor; specific binding to hAPJ (FACS peak shift versus negative control) (hAPJ [2]): shifted to the right obviously

B2: L1H1: APJ antibody with light chain variable domain SEQ ID NO: 59 and heavy chain variable domain SEQ ID NO: 64 (antibody, listed as Mus musculus, V domains shown)
VH: EVQLIETGGGLVQPTGSLQLSCAASGFPFNINAMNWVRQAPGKGLEWVARIRSKSNNYATYYADSVKDRFTISRDDSQSILYLQMNNLKTEDSAMYFCVRGPYLYAMDYWGQGTSVTVSS
VL: DIQMNQSPSSLSASLGDTITITCHASQNIHVWLSWYQQKPGNIPKLLIYKASNLHTGVPSRFSGSGSGTGFTLTISSLQPEDIATYYCQQGHSYPLTFGGGTKLEIKR
**Q.** With B2 as the molecule, how does the “blocking or activation of APJ receptor by the antibody” value (hAPJ [1]) read?
**A.** did not block or activate APJ receptor

**Q.** And the “specific binding to hAPJ (FACS peak shift versus negative control)” value (hAPJ [2])?
**A.** shifted to the right obviously
